Data from US20220242963A1, “B-CELL ACTIVATING CD73 ANTIBODIES” (CORVUS PHARMACEUTICALS, INC., priority 2018, published 2022).

How the values were obtained:
B cells (CD19+CD3−) = assay: B cell activation in healthy donor PBMC, flow cytometry of surface markers / phospho ERK; type: cell-based, human
Description: With reference to FIGS. 2A-2E, each group of four bars from left to right represent data for: untreated donors, donors treated with human IgG1 isotype control, donors treated with BCR stimulation, and donors treated with CPI-006. The experiments for FIGS. 2A-2E are based on healthy donor PBMC treated overnight with flow cytometry analysis of surface markers on B cells (CD19^POS CD3^NEG). These lymphocyte markers are consistent with activation of B cells as well as other antigen presenting cell populations. […] The bar graph legend from top to bottom is representative of the data bars from left to right. […] For FIG. 2H the bar graph legend from top to bottom is representative of the data bars from left to right. For FIG. 2I the legend from top to bottom is representative of the data from top to bottom. […] For each group of four bars, the legend from top to bottom are representative of the bars from left to right.
PBMC were isolated from healthy donors and incubated with bead-bound anti-IgM, CPI-006 (10 μg/mL), or human IgG1 isotype control (10 μg/mL) overnight. Flow cytometry analysis was performed with gating on B cells (CD19+CD3−) and mean fluorescence intensity (MFI) was reported for staining with antibodies to the cell surface markers CD69, CD83, and CD25, as shown in FIGS. 2A-2C. PBMC were isolated from healthy donors and incubated with CPI-006, CPI-016, human IgG1 isotype control, and anti-human CD73 antibody, clone AD2 (available from Bio-Rad Antibodies) over a range of concentrations from about 0.1 μg/mL to more than 10 μg/mL. Flow cytometry analysis was performed with gating on B cells (CD19+CD3−) and mean fluorescence intensity (MFI) is reported for antibody staining of CD69, as shown in FIG. 2F. PBMC were isolated from healthy donors and incubated overnight with bead-bound anti-IgM or CPI-006 (1 μg/mL)+/−BTK inhibitor, ibrutinib (100 nM). Flow cytometry analysis was performed with gating on B cells (CD19+CD3−) and mean fluorescence intensity (MFI) is reported for antibody staining of CD69 and CD83, as shown in FIG. 2G. PBMC were isolated from healthy donors and incubated overnight with APCP (1 μM) or CPI-006 (1 μg/mL)+/−NECA (5′-N-ethylcarboxamidoadenosine). Flow cytometry analysis was performed with gating on B cells (CD19+CD3−) and mean fluorescence intensity (MFI) is reported for antibody staining of CD69, as shown in FIGS. 2H-2I. PBMC were isolated from healthy donors and incubated with the indicated treatments for 15 minutes. Flow cytometry analysis was performed with gating on the indicated cell populations and staining of phospho ERK was evaluated, as shown in FIG. 2J.

[1] = Phase 1/1B clinical trial: adverse events, tolerability; type: in vivo, human
Description: The primary objectives of the study were to show safety and tolerability of the active agents, and the second objectives of the study were to identify PK/PD profiles, drug efficacy, and biomarkers. […] The adenosine gene signature was not used to select patients. The dose expansion includes treatment of non-small cell lung cancer, renal cell carcinoma, non-Hodgkin's lymphoma, and other types of cancers (e.g., bladder, prostate, pancreatic, colorectal, squamous cell cancer of the head and neck). CPI-006 was given as a one hour infusion every three weeks, and for the combination treatments 100 mg po BID of ciforadenant was administered. Biomarker assessment was conducted for the effects of CD73 expression in tumors, peripheral blood lymphocyte subsets, antibody occupancy of target, and serum cytokines.
The baseline demographics of the patients are shown in Table 2 below, and the adverse events are shown in Table 3 (where TEAE refers to treatment-related adverse events based on any grade 3 or 4 events, or 2 or more of all grades).

solid tumors = assay: Phase 1/1B clinical trial: disease control and tumor size; type: in vivo, human
Description: FIGS. 6A-6B show cancer patients being treated with various doses of CPI-006 alone (FIG. 6A) or a combination therapy of CPI-006 and ciforadenant (FIG. 6B). A cycle is once every 21 days. Disease assessment occurred every 3-4 cycles. […] HDNCK refers to head and neck cancer. mCRPC refers to metastatic castration-resistant prostate cancer. BLADD refers to bladder cancer. PANC refers to pancreatic cancer. COLORECT refers to colorectal cancer. RCC refers to renal cell carcinoma. SD indicates stable disease and PD indicates progressive disease.
The highest line at day 10 represents 1 mg/kg, the second highest line at day 10 represents 3 mg/kg, the second lowest line at day 10 represents 6 mg/kg, and the lowest line at day 10 represents 12 mg/kg.
Cancer patients treated with CPI-006 monotherapy or a combination therapy of CPI-006 and ciforadenant were assessed for disease control.

inflammatory cytokines = assay: Phase 1/1B clinical trial: serum cytokine levels; type: in vivo, human; conditions: patients following treatment
Method: Immunomodulatory activity of CPI-006 was evaluated in patients administered CPI-006. […] Further, T cell activation was evaluated upon treatment with various dosages of the monotherapy CPI-006 or a combination therapy of CPI-006 and ciforadenant. Once a T cell clone is activated, the clone can expand and produce clonal copies of the original clone. […] The results further affirm CPI-006 is an immunomodulator of CD73 positive cells.

[2] = cancer patients, monotherapy n = 12, combination n = 8

B1: CPI-006: humanized CD73 antibody, wherein the light chain is SEQ ID NO:8 and the heavy chain is SEQ ID NO:7; IgG1 Fcγ receptor-deficient (antibody, V domains shown)
VH: QVQLVQSGAEVEKPGASVKVSCKASGYTFTSYWITWVRQAPGQGLEWMGDIYPGSGNTNYNEKFKTRVTITADKSTSTAYMELSSLRSEDTAVYYCAKEGGLTTEDYALDYWGQGTLVTV
VL: EIVLTQSPATLSLSPGERATLSCRASKNVSTSGYSYMHWYQQKPGQAPRLLIYLASNLESGIPPRFSGSGYGTDFTLTINNIESEDAAYYFCQHSRELPFTFGQGTKVEIK
B cell activation (CD69, CD83) +/− NECA, versus APCP (B cells (CD19+CD3−); CPI-006 1 μg/mL, APCP 1 μM, overnight, FIGS. 2H-2I): independent of adenosine | B cell activation (CD69, CD83) +/− BTK inhibitor ibrutinib (B cells (CD19+CD3−); CPI-006 1 μg/mL, ibrutinib 100 nM, overnight, FIG. 2G): via BTK | expression of B cell activation marker CD69 (B cells (CD19+CD3−); PBMC overnight, CPI-006 10 μg/mL, gated on B cells, FIG. 2A): induces expression | expression of B cell activation marker CD83 (B cells (CD19+CD3−); PBMC overnight, CPI-006 10 μg/mL, gated on B cells, FIG. 2B): induces expression | expression of B cell activation marker CD25 (B cells (CD19+CD3−); PBMC overnight, CPI-006 10 μg/mL, gated on B cells, FIG. 2C): induces expression | antigen-presenting cell marker CD86 (B cells (CD19+CD3−); PBMC overnight, gated on B cells, FIG. 2D): activates | antigen-presenting cell marker MHC-II (B cells (CD19+CD3−); PBMC overnight, gated on B cells, FIG. 2E): activates | phospho-ERK signaling in B cells versus T cells (B cells (CD19+CD3−); PBMC, 15 minutes, FIG. 2J): to a greater extent than in CD4+ T cells or CD8+ T cells | induction of B cell activation (CD69 MFI) compared with other antibodies (B cells (CD19+CD3−); about 0.1 μg/mL to more than 10 μg/mL, versus CPI-016, isotype control, AD2, FIG. 2F): unique to CPI-006 | direct B cell activation (B cells (CD19+CD3−); human B lymphocytes): directly activates human B lymphocytes | Adverse Events Number of Patients: Anemia, All Grades [1, 2]: 1 | Adverse Events Number of Patients: Anemia, Grade 3 or 4 [1, 2]: 1 | Adverse Events Number of Patients: Chills, All Grades [1, 2]: 4 | Adverse Events Number of Patients: Chills, Grade 3 or 4 [1, 2]: 0 | Adverse Events Number of Patients: Diarrhea, All Grades [1, 2]: 1 | Adverse Events Number of Patients: Diarrhea, Grade 3 or 4 [1, 2]: 0 | Adverse Events Number of Patients: Fatigue, All Grades [1, 2]: 2 | Adverse Events Number of Patients: Fatigue, Grade 3 or 4 [1, 2]: 0 | Adverse Events Number of Patients: Headache, All Grades [1, 2]: 2 | Adverse Events Number of Patients: Headache, Grade 3 or 4 [1, 2]: 0 | Adverse Events Number of Patients: Infusion-related reaction, All Grades [1, 2]: 2 | Adverse Events Number of Patients: Infusion-related reaction, Grade 3 or 4 [1, 2]: 0 | Adverse Events Number of Patients: Nausea, All Grades [1, 2]: 3 | Adverse Events Number of Patients: Nausea, Grade 3 or 4 [1, 2]: 0 | Adverse Events Number of Patients: Pruritus, All Grades [1, 2]: 2 | Adverse Events Number of Patients: Pruritus, Grade 3 or 4 [1, 2]: 0 | Adverse Events Number of Patients: Subjects with any TEAE, All Grades [1, 2]: 8 | Adverse Events Number of Patients: Subjects with any TEAE, Grade 3 or 4 [1, 2]: 1 | dose-limiting toxicity ([1]; doses of 1, 3, and 6 mg/kg): no dose-limiting toxicity | tolerability ([1]; doses of 1, 3, and 6 mg/kg): well tolerated | grade 3/4 adverse events ([1]; patients of Table 4, CPI-006 monotherapy 1, 3, 6 mg/kg): No grade 3/4 adverse events were reported | size of a prostate tumor (solid tumors; after 2 cycles of treatment, i.e., after 42 days, FIG. 7E): reduction in the size | disease control (solid tumors; cancer patients, cycle once every 21 days, FIGS. 6A-6B): higher doses of CPI-006 monotherapy provide longer term disease control | target lesion (solid tumors; one metastatic prostate cancer patient, 6 mg/kg monotherapy, treatment ongoing through 11 cycles, FIG. 7E): decrease in the target legion | cytokines including TNF-α, TNF-β, MIP-1α, MIP-1β, IL-6, IL-10, IL-8, IP-10, MCP-1, MCP-2, IL-1Ra, GRO-α, MIP-3α, TNF-RII, IL-7, MMP-9 (inflammatory cytokines; FIG. 8A): rapid induction | levels of CRP and SAA (inflammatory cytokines; FIG. 8B): subsequent increase
